From article PMC6972956

Experiments:
[1] = target: recombinant integrin αIIbβ3 stably expressed on K562 cells (UniProt P08514); experiment: flow cytometry on cells; mAb PT-25-activated αIIbβ3-K562 cells incubated 30 min at RT with serially diluted unlabeled Hr10, hFN10 or eptifibatide in the presence of 0.5 µM Alexa647-conjugated FB; buffer A
[2] = target: recombinant integrin αVβ3 stably expressed on K562 cells (UniProt P06756); experiment: flow cytometry on cells; displacement of Alexa647-labeled hFN10 from αVβ3-K562 cells by unlabeled hFN10 or Hr10; buffer A (1 mM MgCl2, 1 mM CaCl2), RT
UniProt P06756, sequence (P06756 31-1048, chain 1 of 2): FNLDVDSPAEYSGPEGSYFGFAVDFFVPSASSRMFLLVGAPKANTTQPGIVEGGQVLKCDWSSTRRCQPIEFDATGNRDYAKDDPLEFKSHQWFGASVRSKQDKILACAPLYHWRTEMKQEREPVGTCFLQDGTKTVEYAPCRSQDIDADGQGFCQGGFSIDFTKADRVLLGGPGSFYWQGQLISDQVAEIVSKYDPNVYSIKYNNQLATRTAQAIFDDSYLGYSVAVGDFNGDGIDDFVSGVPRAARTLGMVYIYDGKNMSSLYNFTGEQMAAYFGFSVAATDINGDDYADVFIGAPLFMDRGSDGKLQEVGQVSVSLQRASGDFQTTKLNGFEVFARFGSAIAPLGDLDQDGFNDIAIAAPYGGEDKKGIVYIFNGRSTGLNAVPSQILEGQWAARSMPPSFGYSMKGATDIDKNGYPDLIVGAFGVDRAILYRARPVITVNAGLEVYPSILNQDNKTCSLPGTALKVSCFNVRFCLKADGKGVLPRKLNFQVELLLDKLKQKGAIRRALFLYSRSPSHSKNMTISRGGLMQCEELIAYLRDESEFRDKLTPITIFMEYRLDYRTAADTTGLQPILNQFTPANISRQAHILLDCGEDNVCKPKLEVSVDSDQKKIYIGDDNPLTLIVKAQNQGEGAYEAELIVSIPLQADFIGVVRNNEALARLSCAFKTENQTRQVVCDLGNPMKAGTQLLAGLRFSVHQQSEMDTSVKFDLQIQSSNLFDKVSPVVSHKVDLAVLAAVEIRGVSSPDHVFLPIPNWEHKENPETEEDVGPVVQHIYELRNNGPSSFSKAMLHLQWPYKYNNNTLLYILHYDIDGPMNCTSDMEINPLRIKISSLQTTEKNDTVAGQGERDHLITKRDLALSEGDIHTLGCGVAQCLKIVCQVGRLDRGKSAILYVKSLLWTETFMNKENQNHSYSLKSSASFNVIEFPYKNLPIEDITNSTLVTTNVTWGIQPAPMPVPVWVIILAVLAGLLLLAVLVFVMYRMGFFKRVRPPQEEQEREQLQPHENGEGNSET
UniProt P06756, sequence (P05106 27-788, chain 2 of 2, further chain): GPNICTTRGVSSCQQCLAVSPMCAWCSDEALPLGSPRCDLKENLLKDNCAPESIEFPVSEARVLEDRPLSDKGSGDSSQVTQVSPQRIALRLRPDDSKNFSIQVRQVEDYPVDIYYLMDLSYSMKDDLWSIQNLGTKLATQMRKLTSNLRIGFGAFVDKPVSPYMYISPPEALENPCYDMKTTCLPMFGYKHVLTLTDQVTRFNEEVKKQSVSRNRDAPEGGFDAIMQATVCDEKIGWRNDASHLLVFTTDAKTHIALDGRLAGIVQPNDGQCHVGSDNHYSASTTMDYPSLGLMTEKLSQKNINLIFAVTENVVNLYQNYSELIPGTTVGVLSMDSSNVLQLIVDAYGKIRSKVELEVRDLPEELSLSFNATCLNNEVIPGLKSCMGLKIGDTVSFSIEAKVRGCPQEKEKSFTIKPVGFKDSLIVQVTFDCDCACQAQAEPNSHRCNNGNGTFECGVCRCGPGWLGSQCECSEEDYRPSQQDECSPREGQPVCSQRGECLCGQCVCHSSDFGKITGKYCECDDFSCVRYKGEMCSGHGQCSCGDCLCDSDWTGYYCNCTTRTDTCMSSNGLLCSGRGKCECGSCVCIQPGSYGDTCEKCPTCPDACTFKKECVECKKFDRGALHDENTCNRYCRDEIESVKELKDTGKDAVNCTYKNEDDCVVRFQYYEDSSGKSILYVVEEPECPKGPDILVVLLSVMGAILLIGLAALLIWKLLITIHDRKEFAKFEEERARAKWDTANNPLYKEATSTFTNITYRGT

Row | IC50 [1] [nM] | IC50 [2] [nM] | Substance
1 | 73.2 |  | eptifibatide (peptide)
2 | 474 | 3.6 | hFN10 (from UniProt P02751 1539-1631) (designed binder)
